Reference: patent US20110262445A1 (CEPHALON AUSTRALIA, published 2011)

T1: human IL-23 (human, UniProt P29460 23-328; Q9NPF7 20-189)
T1 construct: Recombinant (Ebioscience); HIS-tagged in flow cytometry, biotinylated in some assays; also called hIL-23; rhIL-23
T1 sequence 1: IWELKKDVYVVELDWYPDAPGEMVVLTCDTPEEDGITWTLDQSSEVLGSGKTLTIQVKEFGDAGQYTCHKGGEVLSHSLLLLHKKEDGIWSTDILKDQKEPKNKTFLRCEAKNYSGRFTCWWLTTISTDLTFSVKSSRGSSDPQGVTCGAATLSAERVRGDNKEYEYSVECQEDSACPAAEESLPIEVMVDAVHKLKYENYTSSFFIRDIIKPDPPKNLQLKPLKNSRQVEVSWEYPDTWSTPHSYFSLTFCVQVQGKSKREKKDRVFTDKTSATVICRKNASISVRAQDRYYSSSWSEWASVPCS
T1 sequence 2: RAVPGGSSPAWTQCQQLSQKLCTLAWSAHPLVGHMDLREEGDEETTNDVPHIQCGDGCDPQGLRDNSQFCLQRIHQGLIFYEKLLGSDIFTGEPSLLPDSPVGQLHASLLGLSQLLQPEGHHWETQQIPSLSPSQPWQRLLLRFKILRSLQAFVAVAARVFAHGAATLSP

T2: human IL-12 (human, UniProt P29460 23-328; P29459 23-219)
T2 construct: Recombinant (Peprotech); FLAG-tagged IL-12 in the flow cytometry assays, biotinylated in the IL-12Rβ2 assay; also called hIL-12
T2 sequence 1: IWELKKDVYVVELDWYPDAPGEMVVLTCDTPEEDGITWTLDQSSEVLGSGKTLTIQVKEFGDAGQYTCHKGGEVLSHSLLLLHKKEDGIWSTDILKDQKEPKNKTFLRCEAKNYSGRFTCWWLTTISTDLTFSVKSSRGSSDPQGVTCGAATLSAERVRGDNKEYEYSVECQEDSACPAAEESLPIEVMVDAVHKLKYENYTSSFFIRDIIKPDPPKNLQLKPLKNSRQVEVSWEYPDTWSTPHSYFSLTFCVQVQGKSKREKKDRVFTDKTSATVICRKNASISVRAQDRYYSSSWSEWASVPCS
T2 sequence 2: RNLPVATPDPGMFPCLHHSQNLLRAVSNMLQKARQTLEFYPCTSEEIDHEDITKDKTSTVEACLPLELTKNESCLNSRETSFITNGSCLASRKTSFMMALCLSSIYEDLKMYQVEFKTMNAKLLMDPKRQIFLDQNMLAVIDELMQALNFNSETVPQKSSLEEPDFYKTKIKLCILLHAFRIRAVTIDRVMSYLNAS


Columns and labels:
human IL-23 = biological target: T1, human IL-23; assay: ELISA, coated IL-23
Method in brief: (§1)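 Each value is an absorbance measuring binding. Plates (Maxisorp) carried cytokine coated at 1 μg/mL in carbonate buffer pH 9.6 overnight at 4° C, were blocked with 1% BSA in PBS for 1 hour at 25° C, and received antibody titrations for 1 hour at 25° C. Detection used goat anti-human IgG or anti-murine immunoglobulin HRP at 1:2000 for 1 hour, then TMB stopped with 1M HCl, with absorbance taken at 450 nm (reference 620 nm).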

human IL-12 [1] = biological target: T2, human IL-12; assay: ELISA, coated IL-12
Method in brief: as §1

human IL-12 [2] = biological target: T2, human IL-12; assay: SPR, single 81 nM analyte, scFv via FLAG

| Binder | binding result (human IL-23) | binding result (human IL-12 [1]) | Kd (human IL-12 [2]) | koff (human IL-12 [2]) | kon (human IL-12 [2]) |
| --- | --- | --- | --- | --- | --- |
| Antibody 62 (antibody, human IgG1, kappa, V domains shown) VH: EVQLVQSGAEVKKPGATVKISCKASGYTFSDYYLHWVRQRPGKGLEWMGWIDPENGDTEYAPKFQGRVTITADTSTDTGYLELSSLRSEDTAVYYCAANKELRYFDVWGQGTLVTVSS VL: DIQMTQSPSSVSASVGDRVTITCRASQSISINLHWYQQKPGKAPKLLIYFASQSISGVPSRFSGYGSGTDFSLTINSLQPEDFATYYCQQSNSFPLTFGGGTKVEIKR | binds | binds | – | – | – |
| Antibody 74 (antibody, human IgG1, kappa, V domains shown) VH: EVQLVQSGAEVKKPGATVKISCKASGYTFSDYYLHWVRQAPGKGLEWMGWIDPENGDTEYAPKFQGKVTITADTSTDTGYLELSSLRSEDTAVYYCAANKELRYFDVWGQGTLVTVSS VL: DIQMTQSPSSVSASVGDRVTITCRASQSISINLHWYQQKPGKAPKLLIKFASQSISGVPSRFSGYGSGTDFSLTINSLQPEDFARYYCQQSNSFPLTFGGGTKVEIKR | binds | binds | – | – | – |
| Antibody 64 (antibody, human IgG1, kappa, V domains shown) VH: EVQLVQSGAEVKKPGATVKISCKASGYTFSDYYLHWVRQAPGKGLEWMGWIDPENGDTEYAPKFQGKVTITADTSTDTGYLELSSLRSEDTAVYYCAANKELRYFDVWGQGTLVTVSS VL: DIQMTQSPSSVSASVGDRVTITCRASQSISINLHWYQQKPGKAPKLLIYFASQSISGVPSRFSGYGSGTDFSLTINSLQPEDFATYYCQQSNSFPLTFGGGTKVEIKR | binds | binds | – | – | – |
| Antibody 75 (antibody, human IgG1, kappa, V domains shown) VH: EVQLVQSGAEVKKPGATVKISCKASGYTFSDYYLHWVRQRPEKGLEWMGWIDPENGDTEYAPKFQGKVTITADTSTDTGYLELSSLRSEDTAVYYCAANKELRYFDVWGQGTLVTVSS VL: DIQMTQSPSSVSASVGDRVTITCRASQSISINLHWYQQKPGKAPKLLIKFASQSISGVPSRFSGYGSGTDFSLTINSLQPEDFARYYCQQSNSFPLTFGGGTKVEIKR | binds | binds | – | – | – |
| Antibody 66 (antibody, human IgG1, kappa, V domains shown) VH: EVQLVQSGAEVKKPGATVKISCKASGYTFSDYYLHWVRQAPGKGLEWMGWIDPENGDTEYAPKFQGRVTITADTSTDTGYLELSSLRSEDTAVYYCAANKELRYFDVWGQGTLVTVSS VL: DIQMTQSPSSVSASVGDRVTITCRASQSISINLHWYQQKPGKAPKLLIYFASQSISGVPSRFSGSGSGTDFSLTINSLQPEDFARYYCQQSNSFPLTFGGGTKVEIKR | binds | binds | – | – | – |
| Antibody 63 (antibody, human IgG1, kappa, V domains shown) VH: EVQLVQSGAEVKKPGATVKISCKASGYTFSDYYLHWVRQAPEKGLEWMGWIDPENGDTEYAPKFQGRVTITADTSTDTGYLELSSLRSEDTAVYYCAANKELRYFDVWGQGTLVTVSS VL: DIQMTQSPSSVSASVGDRVTITCRASQSISINLHWYQQKPGKAPKLLIYFASQSISGVPSRFSGYGSGTDFSLTINSLQPEDFATYYCQQSNSFPLTFGGGTKVEIKR | binds | binds | – | – | – |
| Antibody 73 (antibody, human IgG1, kappa, V domains shown) VH: EVQLVQSGAEVKKPGATVKISCKASGYTFSDYYLHWVRQAPEKGLEWMGWIDPENGDTEYAPKFQGRVTITADTSTDTGYLELSSLRSEDTAVYYCAANKELRYFDVWGQGTLVTVSS VL: DIQMTQSPSSVSASVGDRVTITCRASQSISINLHWYQQKPGKAPKLLIKFASQSISGVPSRFSGYGSGTDFSLTINSLQPEDFARYYCQQSNSFPLTFGGGTKVEIKR | binds | binds | – | – | – |
| Antibody 71 (antibody, human IgG1, kappa, V domains shown) VH: EVQLVQSGAEVKKPGATVKISCKASGYTFSDYYLHWVRQAPGKGLEWMGWIDPENGDTEYAPKFQGRVTITADTSTDTGYLELSSLRSEDTAVYYCAANKELRYFDVWGQGTLVTVSS VL: DIQMTQSPSSVSASVGDRVTITCRASQSISINLHWYQQKPGKAPKLLIKFASQSISGVPSRFSGYGSGTDFSLTINSLQPEDFARYYCQQSNSFPLTFGGGTKVEIKR | binds | binds | – | – | – |
| Antibody 65 (antibody, human IgG1, kappa, V domains shown) VH: EVQLVQSGAEVKKPGATVKISCKASGYTFSDYYLHWVRQRPEKGLEWMGWIDPENGDTEYAPKFQGKVTITADTSTDTGYLELSSLRSEDTAVYYCAANKELRYFDVWGQGTLVTVSS VL: DIQMTQSPSSVSASVGDRVTITCRASQSISINLHWYQQKPGKAPKLLIYFASQSISGVPSRFSGYGSGTDFSLTINSLQPEDFATYYCQQSNSFPLTFGGGTKVEIKR | binds | binds | – | – | – |
| Antibody 72 (antibody, human IgG1, kappa, V domains shown) VH: EVQLVQSGAEVKKPGATVKISCKASGYTFSDYYLHWVRQRPGKGLEWMGWIDPENGDTEYAPKFQGRVTITADTSTDTGYLELSSLRSEDTAVYYCAANKELRYFDVWGQGTLVTVSS VL: DIQMTQSPSSVSASVGDRVTITCRASQSISINLHWYQQKPGKAPKLLIKFASQSISGVPSRFSGYGSGTDFSLTINSLQPEDFARYYCQQSNSFPLTFGGGTKVEIKR | binds | binds | – | – | – |

The remaining lines, values ahead:

| binding result (human IL-23) | binding result (human IL-12 [1]) | Kd (human IL-12 [2]) | koff (human IL-12 [2]) | kon (human IL-12 [2]) | Binder |
| --- | --- | --- | --- | --- | --- |
| binds | binds | – | – | – | Antibody 69 (antibody, human IgG1, kappa, V domains shown) VH: EVQLVQSGAEVKKPGATVKISCKASGYTFSDYYLHWVRQAPGKGLEWMGWIDPENGDTEYAPKFQGKVTITADTSTDTGYLELSSLRSEDTAVYYCAANKELRYFDVWGQGTLVTVSS VL: DIQMTQSPSSVSASVGDRVTITCRASQSISINLHWYQQKPGKAPKLLIYFASQSISGVPSRFSGSGSGTDFSLTINSLQPEDFARYYCQQSNSFPLTFGGGTKVEIKR |
| binds | binds | – | – | – | Antibody 67 (antibody, human IgG1, kappa, V domains shown) VH: EVQLVQSGAEVKKPGATVKISCKASGYTFSDYYLHWVRQRPGKGLEWMGWIDPENGDTEYAPKFQGRVTITADTSTDTGYLELSSLRSEDTAVYYCAANKELRYFDVWGQGTLVTVSS VL: DIQMTQSPSSVSASVGDRVTITCRASQSISINLHWYQQKPGKAPKLLIYFASQSISGVPSRFSGSGSGTDFSLTINSLQPEDFARYYCQQSNSFPLTFGGGTKVEIKR |
| binds | binds | – | – | – | Antibody 70 (antibody, human IgG1, kappa, V domains shown) VH: EVQLVQSGAEVKKPGATVKISCKASGYTFSDYYLHWVRQRPEKGLEWMGWIDPENGDTEYAPKFQGKVTITADTSTDTGYLELSSLRSEDTAVYYCAANKELRYFDVWGQGTLVTVSS VL: DIQMTQSPSSVSASVGDRVTITCRASQSISINLHWYQQKPGKAPKLLIYFASQSISGVPSRFSGSGSGTDFSLTINSLQPEDFARYYCQQSNSFPLTFGGGTKVEIKR |
| – | – | 0.029 nM | 4.5e-05 s⁻¹ | 1.6e+06 M⁻¹ s⁻¹ | scFv combo. # 3 (scFv, scFv-80 with VH T28A; VL S26P; not shown: proprietary C-terminal FLAG tag) scFv: QVQLVQSGAEVKKPGASVKVSCKASGYAFTDYYLHWVRQAPGQGLEWMGWIDPENGDTEYAPKFQGRVTMTTDTSTSTAYMELRSLRSDDTAVYYCNANKELRYFDVWGQGTMVTVSSGGGGSGGGGSGGGGSEIVMTQSPATLSVSPGERATLSCRAPQSISINLHWYQQKPGQAPRLLIYFASQSISGIPARFSGSGSGTEFTLTISSLQSEDFAVYYCQQSNSFPLTFGGGTKVEIKR |
| – | – | 0.039 nM | 6.4e-05 s⁻¹ | 1.7e+06 M⁻¹ s⁻¹ | scFv combo. # 15 (scFv, scFv-80 with VH F29L; VL S63F; not shown: proprietary C-terminal FLAG tag) scFv: QVQLVQSGAEVKKPGASVKVSCKASGYTLTDYYLHWVRQAPGQGLEWMGWIDPENGDTEYAPKFQGRVTMTTDTSTSTAYMELRSLRSDDTAVYYCNANKELRYFDVWGQGTMVTVSSGGGGSGGGGSGGGGSEIVMTQSPATLSVSPGERATLSCRASQSISINLHWYQQKPGQAPRLLIYFASQSISGIPARFFGSGSGTEFTLTISSLQSEDFAVYYCQQSNSFPLTFGGGTKVEIKR |
| – | – | 0.027 nM | 4.8e-05 s⁻¹ | 1.8e+06 M⁻¹ s⁻¹ | scFv combo. # 4 (scFv, scFv-80 with VH F29L; VL S26P; not shown: proprietary C-terminal FLAG tag) scFv: QVQLVQSGAEVKKPGASVKVSCKASGYTLTDYYLHWVRQAPGQGLEWMGWIDPENGDTEYAPKFQGRVTMTTDTSTSTAYMELRSLRSDDTAVYYCNANKELRYFDVWGQGTMVTVSSGGGGSGGGGSGGGGSEIVMTQSPATLSVSPGERATLSCRAPQSISINLHWYQQKPGQAPRLLIYFASQSISGIPARFSGSGSGTEFTLTISSLQSEDFAVYYCQQSNSFPLTFGGGTKVEIKR |
| – | – | 0.038 nM | 6.5e-05 s⁻¹ | 1.7e+06 M⁻¹ s⁻¹ | scFv combo. # 5 (scFv, scFv-80 with VH T28A; VL S63F; not shown: proprietary C-terminal FLAG tag) scFv: QVQLVQSGAEVKKPGASVKVSCKASGYAFTDYYLHWVRQAPGQGLEWMGWIDPENGDTEYAPKFQGRVTMTTDTSTSTAYMELRSLRSDDTAVYYCNANKELRYFDVWGQGTMVTVSSGGGGSGGGGSGGGGSEIVMTQSPATLSVSPGERATLSCRASQSISINLHWYQQKPGQAPRLLIYFASQSISGIPARFFGSGSGTEFTLTISSLQSEDFAVYYCQQSNSFPLTFGGGTKVEIKR |
